Experimental data published in patent US20190144917.

Experiments:
[1] = biological target: T1, S2: Biotin-CGPVPLSLVMK(Cy7)eGvndneeGffsar-NH2
T1 chain: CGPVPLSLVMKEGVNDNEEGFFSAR

[2] = biological target: T2, C1-NPs: fluorescein-conjugated MMP substrate peptide C1 (FAM-sk-PLGLEEA-GC) coupled to iron oxide nanoparticles (not fully specified)
T2 chain: SKPLGLEEAGC

[3] = biological target: T3, alternate substrate/reporter peptide eGvndneeGffsarKsRLVGEGC (second substrate RLVGEGC), unmodified
T3 chain: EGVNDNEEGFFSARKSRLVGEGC

[4] = biological target: T4, alternate substrate/reporter peptide eGvndneeGffsarKsRLVGEGC veiled with DMNPE
T4 chain: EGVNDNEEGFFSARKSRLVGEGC

B1: recombinant MMP7 (protein)
chain: YSLFPNSPKWTSKVVTYRIVSYTRDLPHITVDRLVSKALNMWGKEIPLHFRKVVWGTADIMIGFARGAHGDSYPFDGPGNTLAHAFAPGTGLGGDAHFDEDERWTDGSSLGINFLYAATHELGHSLGMGHSSDPNAVMYPTYGNGDPQNFKLSQDDIKGIQKLYGKRSNSRKK
relative proteolysis (Cy7 signal after streptavidin depletion of uncleaved peptide) [1]: cleaved efficiently by MMP7 and MMP19
proteolysis (fluorescence dequenching) [2]: significantly cleaved by MMP13, 7, 1, and 9

B2: plasmin (protein)
chain: KVYLSECKTGNGKNYRGTMSKTKNGITCQKWSSTSPHRPRFSPATHPSEGLEENYCRNPDNDPQGPWCYTTDPEKRYDYCDILECEEECMHCSGENYDGKISKTMSGLECQAWDSQSPHAHGYIPSKFPNKNLKKNYCRNPDRELRPWCFTTDPNKRWELCDIPRCTTPPPSSGPTYQCLKGTGENYRGNVAVTVSGHTCQHWSAQTPHTHNRTPENFPCKNLDENYCRNPDGKRAPWCHTTNSQVRWEYCKIPSCDSSPVSTEQLAPTAPPELTPVVQDCYHGDGQSYRGTSSTTTTGKKCQSWSSMTPHRHQKTPENYPNAGLTMNYCRNPDADKGPWCFTTDPSVRWEYCNLKKCSGTEASVVAPPPVVLLPDVETPSEEDCMFGNGKGYRGKRATTVTGTPCQDWAAQEPHRHSIFTPETNPRAGLEKNYCRNPDGDVGGPWCYTTNPRKLYDYCDVPQCAAPSFDCGKPQVEPKKCPGRVVGGCVAHPHSWPWQVSLRTRFGMHFCGGTLISPEWVLTAAHCLEKSPRPSSYKVILGAHQEVNLEPHVQEIEVSRLFLEPTRKDIALLKLSSPAVITDKVIPACLPSPNYVVADRTECFITGWGETQGTFGAGLLKEAQLPVIENKVCNRYEFLNGRVQSTELCAGHLAGGTDSCQGDSGGPLVCFEKDKYILQGVTSWGLGCARPNKPGVYVRVSRFVTWIEGVMRNN
proteolysis [3]: proteolysis by plasmin
proteolysis [4]: reduced proteolysis by plasmin, which was recovered by UV exposure

B3: recombinant MMP1 (protein)
chain: FVLTEGNPRWEQTHLTYRIENYTPDLPRADVDHAIEKAFQLWSNVTPLTFTKVSEGQADIMISFVRGDHRDNSPFDGPGGNLAHAFQPGPGIGGDAHFDEDERWTNNFREYNLHRVAAHELGHSLGLSHSTDIGALMYPSYTFSGDVQLAQDDIDGIQAIYGRSQNPVQ
proteolysis (fluorescence dequenching) [2]: significantly cleaved by MMP13, 7, 1, and 9
